Measured values from IntAct's records for PubMed 16286920.

B1: Galectin-9 (Mus musculus), O08573-2 (parent)
chain: MALFSAQSPYINPIIPFTGPIQGGLQEGLQVTLQGTTKSFAQRFVVNFQNSFNGNDIAFHFNPRFEEGGYVVCNTKQNGQWGPEERKMQMPFQKGMPFELCFLVQRSEFKVMVNKKFFVQYQHRVPYHLVDTIAVSGCLKLSFITFQTQNFRPAHQAPMAQTTIHMVHSTPGQMFSTPGIPPVVYPTPAYTIPFYTPIPNGLYPSKSIMISGNVLPDATRFHINLRCGGDIAFHLNPRFNENAVVRNTQINNSWGQEERSLLGRMPFSRGQSFSVWIICEGHCFKVAVNGQHMCEYYHRLKNLQDINTLEVAGDIQLTHVQT

Variants of: B1
Details: with havr2_mouse Havcr2, Q8VIM0
Chain of havr2_mouse Havcr2, Q8VIM0 (Q8VIM0 whole entry): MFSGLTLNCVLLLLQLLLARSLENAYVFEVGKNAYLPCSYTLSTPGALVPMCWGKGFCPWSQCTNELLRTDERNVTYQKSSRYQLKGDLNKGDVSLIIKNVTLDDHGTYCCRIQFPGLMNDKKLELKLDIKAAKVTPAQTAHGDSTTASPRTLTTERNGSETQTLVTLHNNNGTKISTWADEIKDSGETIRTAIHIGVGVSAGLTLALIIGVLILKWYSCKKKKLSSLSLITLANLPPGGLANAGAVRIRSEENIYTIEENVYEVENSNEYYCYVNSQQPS

Row | effect of a mutation on the interaction | Variant
1 | decreasing interaction strength | R238A
2 | disrupting interaction strength | R64A;R238A
3 | decreasing interaction strength | R64A
